Source: patent publication US20200255522A1 (published 2020)

T1: VEGF (UniProt P15692-9 27-147)
T1 construct: also called VEGF121
T1 sequence (looked up): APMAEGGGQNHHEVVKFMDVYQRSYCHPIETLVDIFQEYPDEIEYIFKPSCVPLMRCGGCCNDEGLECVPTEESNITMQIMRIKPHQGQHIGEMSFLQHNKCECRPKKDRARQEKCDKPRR

B1: bsAb from exchange reaction between anti-bio 2/3-IgG (MHCFcRP-knob-E357K) and anti-fluos 2/3-IgG (MHCFcRP-hole-K370E) (bispecific antibody)
heavy 1: not shown
light 1: DIQMTQSPSSLSASVGDRVTITCRASGNIHNYLSWYQQKPGKVPKLLIYSAKTLADGVPSRFSGSGSGTDFTLTISSLQPEDVATYYCQHFWSSIYTFGQGTKLEIKRTVAAPSVFIFPPSDEQLKSGTASVVCLLNNFYPREAKVQWKVDNALQSGNSQESVTEQDSKDSTYSLSSTLTLSKADYEKHKVYACEVTHQGLSSPVTKSFNRGEC
heavy 2: not shown
light 2: DIVMTQTPLSLSVTPGQPASISCKSSQSLVHSNGNTYLRWYLQKPGQSPKVLIYKVSNRVSGVPDRFSGSGSGTDFTLKISRVEAEDVGVYYCSQSTHVPWTFGQGTKLEIKRTVAAPSVFIFPPSDEQLKSGTASVVCLLNNFYPREAKVQWKVDNALQSGNSQESVTEQDSKDSTYSLSSTLTLSKADYEKHKVYACEVTHQGLSSPVTKSFNRGEC
notes: Exchange product as applied in the reaction mix; also called bio fluos
B2: bsAb from exchange reaction between anti-bio 2/3-IgG (MHCFcRP-knob-E357K) and anti-dig 2/3-IgG (MHCFcRP-hole-K370E) (bispecific antibody, not shown: small tags and cut ends)
heavy 1: not shown
light 1: B1 light 1
heavy 2: QVQLVESGGGLVKPGGSLRLSCAASGFTFSDYAMSWIRQAPGKGLEWVSSINIGATYIYYADSVKGRFTISRDNAKNSLYLQMNSLRAEDTAVYYCARPGSPYEYDKAYYSMAYWGQGTTVTVSSASTKGPSVFPLAPSSKSTSGGTAALGCLVKDYFPEPVTVSWNSGALTSGVHTFPAVLQSSGLYSLSSVVTVPSSSLGTQTYICNVNHKPSNTKVDKKVEPKSC
light 2: not shown
notes: Exchange product as applied in the reaction mix; also called bio dig
B3: bsAb from exchange reaction between anti-fluos 2/3-IgG (MHCFcRP-knob-E357K) and anti-dig 2/3-IgG (MHCFcRP-hole-K370E) (bispecific antibody, not shown: small tags and cut ends)
heavy 1: not shown
light 1: B1 light 2
heavy 2: B2 heavy 2
light 2: not shown
notes: Exchange product as applied in the reaction mix; also called fluos dig
B4: bsAb from exchange reaction between anti-dig 2/3-IgG (MHCFcRP-knob-E357K) and anti-fluos 2/3-IgG (MHCFcRP-hole-K370E) (bispecific antibody, not shown: small tags and cut ends)
heavy 1: B2 heavy 2
light 1: not shown
heavy 2: not shown
light 2: B1 light 2
notes: Exchange product as applied in the reaction mix; also called dig fluos
B5: bsAb from exchange reaction between anti-PDGF 2/3-IgG (MHCFcRP-knob-E357K) and anti-bio 2/3-IgG (MHCFcRP-hole-K370E) (bispecific antibody, not shown: small tags and cut ends)
heavy 1: EVQLVESGGGLVQPGGSLRLSCAASGFTFSSYWMSWVRQAPEKGLEWVSTISDGGGLTYYADSVKGRFTISRDNAKNSLYLQMNSLRAEDTAVYYCAESGGYTDWLFGYWGQGTLVTVSSASTKGPSVFPLAPSSKSTSGGTAALGCLVKDYFPEPVTVSWNSGALTSGVHTFPAVLQSSGLYSLSSVVTVPSSSLGTQTYICNVNHKPSNTKVDKKVEPKSC
light 1: not shown
heavy 2: not shown
light 2: B1 light 1
notes: Exchange product as applied in the reaction mix; also called PDGF bio
B6: bsAb from exchange reaction between anti-dig 2/3-IgG (MHCFcRP-knob-E357K) and anti-bio 2/3-IgG (MHCFcRP-hole-K370E) (bispecific antibody, not shown: small tags and cut ends)
heavy 1: B2 heavy 2
light 1: not shown
heavy 2: not shown
light 2: B1 light 1
notes: Exchange product as applied in the reaction mix; also called dig bio
B7: bsAb from exchange reaction between anti-bio 2/3-IgG (MHCFcRP-knob-E357K) and anti-PDGF 2/3-IgG (MHCFcRP-hole-K370E) (bispecific antibody, not shown: small tags and cut ends)
heavy 1: not shown
light 1: B1 light 1
heavy 2: B5 heavy 1
light 2: not shown
notes: Exchange product as applied in the reaction mix; also called bio PDGF
B8: bsAb from exchange reaction between anti-fluos 2/3-IgG (MHCFcRP-knob-E357K) and anti-bio 2/3-IgG (MHCFcRP-hole-K370E) (bispecific antibody)
heavy 1: not shown
light 1: B1 light 2
heavy 2: not shown
light 2: B1 light 1
notes: Exchange product as applied in the reaction mix; also called fluos bio
B9: bsAb from exchange reaction between anti-dig 2/3-IgG (MHCFcRP-knob-E357K) and anti-PDGF 2/3-IgG (MHCFcRP-hole-K370E) (bispecific antibody, not shown: small tags and cut ends)
heavy 1: B2 heavy 2
light 1: not shown
heavy 2: B5 heavy 1
light 2: not shown
notes: Exchange product as applied in the reaction mix; also called dig PDGF
B10: bsAb from exchange reaction between anti-PDGF 2/3-IgG (MHCFcRP-knob-E357K) and anti-dig 2/3-IgG (MHCFcRP-hole-K370E) (bispecific antibody, not shown: small tags and cut ends)
heavy 1: B5 heavy 1
light 1: not shown
heavy 2: B2 heavy 2
light 2: not shown
notes: Exchange product as applied in the reaction mix; also called PDGF dig

Molecular target: T1, VEGF
Test: bridging ELISA, capture VEGF, detection biocytinamid-Cy5 or digoxygenin-Cy5

Binder	binding result
B1	no binding (tested: 1.3 µM input molecule concentration)
B2	no binding (tested: 1.3 µM input molecule concentration)
B3	no binding (tested: 1.3 µM input molecule concentration)
B4	no binding (tested: 1.3 µM input molecule concentration)
B5	no binding (tested: 1.3 µM input molecule concentration)
B6	no binding (tested: 1.3 µM input molecule concentration)
B7	no binding (tested: 1.3 µM input molecule concentration)
B8	no binding (tested: 1.3 µM input molecule concentration)
B9	no binding (tested: 1.3 µM input molecule concentration)
B10	no binding (tested: 1.3 µM input molecule concentration)

Molecular target: T1, VEGF
Test: bridging ELISA of exchange reaction mix: capture VEGF, detection digoxygenin-Cy5; signal needs both specificities; highest value = 100%, input 1.3 µM

Binder	relative signal intensity
B1	7.2%
B2	6.2%
B3	6.3%
B4	6.7%
B5	6%
B6	6.2%
B7	6.1%
B8	6.5%
B9	7%
B10	5.9%

Molecular target: T1, VEGF
Test: bridging ELISA of exchange reaction mix: capture VEGF, detection biocytinamid-Cy5; signal needs both specificities; highest value = 100%, input 1.3 µM

Binder	relative signal intensity
B1	9%
B2	9.3%
B3	9.4%
B4	9.1%
B5	10.5%
B6	9%
B7	10.1%
B8	10.2%
B9	9.9%
B10	9.2%
